According to patent US20210363262A1 (AIMED BIO, published 2021):
Where a chain is given by its changes, count along the chain named.

B1: 1F12 (parent antibody), full-length human IgG1 (antibody, V domains shown)
VH: EVQLLESGGGLVQPGGSLRLSCAASGFTFSNYAMSWVRQAPGKGLEWVSGISYSGGSTYYADSVKGRFTISRDNSKNTLYLQMNSLRAEDTAVYYCAKASRSCQRPACSYANGMDVWGQGTLVTVSS
VL: QSVLTQPPSASGTPGQRVTISCTGSSSNIGNNYVTWYQQLPGTAPKLLIYYNNHRPSGVPDRFSGSKSGTSASLAISGLQSEDEADYYCGSWDYSLSAYVFGGGTKLTVL
B2: 1F12_H2L3, full-length human IgG1 (antibody, V domains shown)
VH: B1 VH with S54D
VL: B1 VL with Y51E
B3: 1F12_H2L6, full-length human IgG1 (antibody, V domains shown)
VH: B1 VH with S54D
VL: B1 VL with Y99D
B4: 1F12_H3L5, full-length human IgG1 (antibody, V domains shown)
VH: B1 VH with T58K
VL: B1 VL with S97R
B5: 1F12_H6L5, full-length human IgG1 (antibody, V domains shown)
VH: B1 VH with S109H
VL: B1 VL with S97R
B6: 1F12_L50E, full-length human IgG1 (antibody, V domains shown)
VH: B1 VH
VL: B1 VL with Y51E
B7: 1F12_L51D, full-length human IgG1 (antibody, V domains shown)
VH: B1 VH
VL: B1 VL with N52D
B8: 1F12_L95aR, full-length human IgG1 (antibody, V domains shown)
VH: B1 VH
VL: B1 VL with S97R
B9: 1F12_L96D, full-length human IgG1 (antibody, V domains shown)
VH: B1 VH
VL: B1 VL with Y99D
B10: 1F12_H35H, full-length human IgG1 (antibody, V domains shown)
VH: B1 VH with S35H
VL: B1 VL
B11: 1F12_H53D, full-length human IgG1 (antibody, V domains shown)
VH: B1 VH with S54D
VL: B1 VL
B12: 1F12_H57K, full-length human IgG1 (antibody, V domains shown)
VH: B1 VH with T58K
VL: B1 VL
B13: 1F12_H58D, full-length human IgG1 (antibody, V domains shown)
VH: B1 VH with Y59D
VL: B1 VL
B14: 1F12_H60N, full-length human IgG1 (antibody, V domains shown)
VH: B1 VH with A61N
VL: B1 VL
B15: 1F12_H100eH, full-length human IgG1 (antibody, V domains shown)
VH: B1 VH with S109H
VL: B1 VL
B16: 1F12_L26D, full-length human IgG1 (antibody, V domains shown)
VH: B1 VH
VL: B1 VL with S25D
B17: 1F12_L27bD, full-length human IgG1 (antibody, V domains shown)
VH: B1 VH
VL: B1 VL with N28D

Target: c-Met on cancer cell lines (Caki-1 renal cell carcinoma; MKN45 c-Met-amplified gastric cancer) (UniProt P08581)
Sequence (P08581 25-1390): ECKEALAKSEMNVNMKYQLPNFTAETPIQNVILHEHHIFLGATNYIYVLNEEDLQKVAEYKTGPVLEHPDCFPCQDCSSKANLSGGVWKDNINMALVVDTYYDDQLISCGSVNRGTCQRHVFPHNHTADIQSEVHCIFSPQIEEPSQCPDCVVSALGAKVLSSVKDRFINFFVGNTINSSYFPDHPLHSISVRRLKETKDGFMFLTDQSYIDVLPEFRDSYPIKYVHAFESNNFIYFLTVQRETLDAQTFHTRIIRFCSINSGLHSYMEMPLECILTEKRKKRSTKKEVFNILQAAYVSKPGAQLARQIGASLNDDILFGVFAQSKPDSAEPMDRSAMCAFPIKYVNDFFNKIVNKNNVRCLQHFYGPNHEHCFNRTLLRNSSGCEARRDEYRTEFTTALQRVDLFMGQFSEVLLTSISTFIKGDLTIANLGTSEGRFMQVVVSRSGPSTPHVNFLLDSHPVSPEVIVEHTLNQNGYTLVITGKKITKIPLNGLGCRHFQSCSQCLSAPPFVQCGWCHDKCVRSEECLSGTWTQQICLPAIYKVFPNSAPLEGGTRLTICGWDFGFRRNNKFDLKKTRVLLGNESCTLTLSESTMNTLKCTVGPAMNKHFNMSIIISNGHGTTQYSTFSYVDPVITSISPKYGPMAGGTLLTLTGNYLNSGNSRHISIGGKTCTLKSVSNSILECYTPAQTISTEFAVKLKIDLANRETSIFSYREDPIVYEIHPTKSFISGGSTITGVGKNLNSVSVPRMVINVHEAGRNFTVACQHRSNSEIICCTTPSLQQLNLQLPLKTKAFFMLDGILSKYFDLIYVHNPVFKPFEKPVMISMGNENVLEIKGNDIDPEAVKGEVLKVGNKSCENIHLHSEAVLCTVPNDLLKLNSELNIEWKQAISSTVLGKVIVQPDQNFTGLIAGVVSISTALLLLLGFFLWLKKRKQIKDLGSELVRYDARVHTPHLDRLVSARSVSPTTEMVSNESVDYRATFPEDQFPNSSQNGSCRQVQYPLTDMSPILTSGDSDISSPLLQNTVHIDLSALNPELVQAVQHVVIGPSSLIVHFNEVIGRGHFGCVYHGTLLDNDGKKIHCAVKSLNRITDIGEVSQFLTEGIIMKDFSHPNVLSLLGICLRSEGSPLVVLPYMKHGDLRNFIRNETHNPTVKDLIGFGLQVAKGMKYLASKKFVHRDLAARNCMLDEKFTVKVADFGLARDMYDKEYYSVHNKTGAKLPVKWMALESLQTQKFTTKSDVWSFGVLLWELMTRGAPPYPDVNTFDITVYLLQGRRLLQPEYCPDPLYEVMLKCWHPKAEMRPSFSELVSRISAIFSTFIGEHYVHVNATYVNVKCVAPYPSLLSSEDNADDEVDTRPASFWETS
Assay: cell-based or functional assay

Molecule | agonist activity: Akt phosphorylation in Caki-1 cells, Mean (%) (PBS = 0%, HGF/SF = 100%)
5D5, c-Met agonist antibody | 86
c-Met ligand HGF/SF (R&D systems) (from UniProt P14210 32-728) | 100
Onartuzumab (OA-5D5; monovalent c-Met antibody, Genentech) | 30.5

Target: c-Met on cancer cell lines (Caki-1 renal cell carcinoma; MKN45 c-Met-amplified gastric cancer) (UniProt P08581 25-1390)
Sequence (P08581 25-1390): as above
Assay: cell-based or functional assay

Molecule | agonist activity: Akt phosphorylation in Caki-1 cells, Mean (%) (PBS = 0%, HGF/SF = 100%)
B1 | 18.2
B2 | 24.5
B3 | 26
B4 | 18.9
B5 | 18.2
B6 | 37.2
B7 | 42.5
B8 | 29.5
B9 | 21.2
B10 | 17.3
B11 | 24.5
B12 | 26.8
B13 | 21.5
B14 | 27.7
B15 | 27.5
B16 | 38.1
B17 | 30.3
